The target in the data set is hExo1 catalytic domain D173A (Homo sapiens, UniProt Q9UQ84 1-352, D173A). The data set is described as follows: crystal structure.
hExo1 catalytic domain D173A, sequence (Q9UQ84 1-352 D173A): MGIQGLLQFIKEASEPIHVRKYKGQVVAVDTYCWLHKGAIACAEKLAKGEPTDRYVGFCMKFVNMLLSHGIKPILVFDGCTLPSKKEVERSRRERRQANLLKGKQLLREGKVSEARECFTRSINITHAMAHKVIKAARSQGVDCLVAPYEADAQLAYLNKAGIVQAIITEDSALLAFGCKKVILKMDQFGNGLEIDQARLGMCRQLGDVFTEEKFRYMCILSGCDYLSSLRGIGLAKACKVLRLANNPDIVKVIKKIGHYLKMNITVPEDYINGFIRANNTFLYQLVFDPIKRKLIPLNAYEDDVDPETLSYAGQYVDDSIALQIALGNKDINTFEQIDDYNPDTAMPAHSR

B1: 5'-recessed-end substrate (gap mimic) (dsDNA)
DNA 1: TCGACTAGCG
DNA 2: CGCTAGTCGACAC
modifications: 5' phosphate on strand 1
B1: the binding result was “binds”.
